The results in this text go back to article PMC12737678.

The target in test [1] is oxytocin (UniProt P01178). Briefly: small-molecule microarray.
Test [2] concerns the target SARS-CoV-2 papain-like protease (PLpro) (SARS-CoV-2).

On to “SARS-CoV-2 main protease (Mpro) (enzyme)”, for which the SNR (signal-to-noise ratio on the microarray) in test [1] is 5.53. The substance “oxytocin (from UniProt P01178 20-28) (peptide)” gave an IC50 of inhibition of PLpro enzymatic activity (dose-response curve, Figure 5C) in test [2] of 4.92 µM. Take “SARS-CoV-2 papain-like protease (PLpro) (enzyme)”: in test [1], the SNR (signal-to-noise ratio on the microarray) came out at 6.52.
